Reference: patent publication US10947270B2, “Targeted prodrug cytosine deaminase fusion carrier and application thereof” (National Yang-Ming University, priority 2015, dated 2021)

B1: RGD4C-yCD/UPRT: targeted prodrug enzyme fusion protein (SEQ ID NO: 4) (protein)
chain: MACDCRGDCFCVTGGMASKWDQKGMDIAYEEAALGYKEGGVPIGGCLINNKDGSVLGRGHNMRFQKGSATLHGEISTLENCGRLEGKVYKDTTLYTTLSPCDMCTGAIIMYGIPRCVVGENVNFKSKGEKYLQTRGHEVVVVDDERCKKIMKQFIDERPQDWFEDIGEASEPFKNVYLLPQTNQLLGLYTIIRNKNTTRPDFIFYSDRIIRLLVEEGLNHLPVQKQIVETDTNENFEGVSFMGKICGVSIVRAGESMEQGLRDCCRSVRIGKILIQRDEETALPKLFYEKLPEDISERYVFLLDPMLATGGSAIMATEVLIKRGVKPERIYFLNLICSKEGIEKYHAAFPEVRIVTGALDRGLDENKYLVPGLGDFGDRYYCVLEHHHHHH
modifications: RGD4C_yCD_yUPRT
B2: RGD4C-yCD: targeted prodrug enzyme fusion protein of RGD4C and yCD (SEQ ID NO: 3) (protein)
chain: MACDCRGDCFCVTGGMASKWDQKGMDIAYEEAALGYKEGGVPIGGCLINNKDGSVLGRGHNMRFQKGSATLHGEISTLENCGRLEGKVYKDTTLYTTLSPCDMCTGAIIMYGIPRCVVGENVNFKSKGEKYLQTRGHEVVVVDDERCKKIMKQFIDERPQDWFEDIGELEHHHHHH
modifications: RGD4C_yCD
B3: yCD/UPRT: recombinant fusion of yCD and yUPRT without target molecule (protein)
chain: MVVTGGMASKWDQKGMDIAYEEAALGYKEGGVPIGGCLINNKDGSVLGRGHNMRFQKGSATLHGEISTLENCGRLEGKVYKDTTLYTTLSPCDMCTGAIIMYGIPRCVVGENVNFKSKGEKYLQTRGHEVVVVDDERCKKIMKQFIDERPQDWFEDIGEASEPFKNVYLLPQTNQLLGLYTIIRNKNTTRPDFIFYSDRIIRLLVEEGLNHLPVQKQIVETDTNENFEGVSFMGKICGVSIVRAGESMEQGLRDCCRSVRIGKILIQRDEETALPKLFYEKLPEDISERYVFLLDPMLATGGSAIMATEVLIKRGVKPERIYFLNLICSKEGIEKYHAAFPEVRIVTGALDRGLDENKYLVPGLGDFGDRYYCVLEHHHHHH

Experiments:
integrin αvβ3 receptor = integrin αvβ3 receptor (Homo sapiens, UniProt P05106+P06756); test: ELISA binding assay of yCD series recombinant protein to integrin αvβ3 receptor; conditions: for decrease of binding to integrin αvβ3 by RGDfv peptide: RGDfv peptide at same concentration
Experimental: FIGS. 3A-3B show the binding affinity and specificity of RGD4C-yCD, yCD, RGD4C-yCD/UPRT and yCD/UPRT proteins to integrin αvβ3. The binding affinities of RGD4C-yCD, yCD, RGD4C-yCD/UPRT and yCD/UPRT proteins to integrin αvβ3 were determined by ELISA assay using horseradish peroxidase (HRP)-tagged anti-His6 antibody (FIG. 3A). The dissociation constant Kd is obtained by prism software with curve fitting method. […] (*compared with untreated RGDfv group, P<0.05)
The specific binding ability of RGD4C-yCD, yCD, RGD4C-yCD/UPRT and yCD/UPRT recombinant protein to integrin αvβ3 receptor is analyzed by ELISA binding assay, plotted with prism software and made with curve fitting to find the dissociation constant Kd value.

HUVEC and U87MG cells = test: Fluorescence microscopy of binding and distribution of yCD series fusion proteins; format: cell-based, human; conditions: 500 nM protein, 2 hours
Experimental: (FIG. 8A) or 37° C. […] (FIG. 8C) or 37° C. (FIG. 8D) for 2 hours, and then the fluorescent staining is performed for the cells, and the confocal fluorescence microscope is used to observe the distribution of protein in cells. (Green signal: β3 integrin; red signal: anti-His6-tag (also represents the signal of the fusion protein); blue signal: Hoechst 33342 cell nuclear stain) (Calibration scale: 20 μm).
HUVEC and U87MG cells are co-cultured with culture medium containing 500 nM RGD4C-yCD and RGD4C-yCD/UPRT protein at 4° C. and 37° C. for 2 hours, then the cells are stained with fluorescence, and the distribution in the cell is observed by conjugated fluorescence microscopy.

HUVEC cells = test: Specific binding assay of yCD series recombinant protein and cell (cell ELISA); format: cell-based, human; conditions: HUVEC versus MCF-7
Experimental: (§1) FIG. 5A, FIG. 5B, and FIG. 5C are respectively represented HUVEC cells, U87MG cells, MCF-7 cells seeded in 96-well plates for 24 hours, and then RGD4C-yCD, yCD, RGD4C-yCD/UPRT and yCD/UPRT with different concentrations are added for cells binding assay. After reacted with anti-His-HRP antibody and TMB substrate, ELISA reader (OD450 nm) is used to detect the amount of recombinant protein bound to the cells, and the binding curve is drawn. The nonlinear curve of the prism software is used to make a diagram and calculate the dissociation constant (Kd).
(§2) The anti-His6-Tag-HRP antibody and TMB show the color reagent to detect the amount of recombinant protein bound to the cell, then the dissociation constant Kd value of the recombinant protein and the integrin αvβ3 receptor is calculated and a binding curve is drawn. […] The cell binding ability of RGD4C-yCD for HUVEC and U87MG are about 7.7 folds and 6.8 folds higher than MCF-7 respectively. The cell binding ability of RGD4C-yCD/UPRT for HUVEC and U87MG are about 6.9 folds and 5.8 folds higher than MCF-7 respectively. […] It is shown that RGD4C-yCD and RGD4C-yCD/UPRT are specially bound with integrin αvβ3 through RGD4C sequence.

[1] = Enzyme activity and kinetic analysis of yCD series recombinant proteins (5-FC converted into 5-FU); format: biochemical; conditions: 50 nM protein
Experimental: FIGS. 2A-2B show the enzyme activities of RGD4C-yCD, yCD, RGD4C-yCD/UPRT and yCD/UPRT proteins to convert 5-FC to 5-FU. 50 nM of RGD4C-yCD, yCD, RGD4C-yCD/UPRT or yCD/UPRT protein reacted with increasing concentrations of 5-FC in phosphate buffered saline solutions. […] The measured data was used to plot the enzyme kinetic curve that takes the substrate concentration [S] as the x-axis and takes the initial reaction rate V0 as the y-axis,
The enzyme activity of 5-FC converted into 5-FU by RGD4C-yCD, yCD, RGD4C-yCD/UPRT and yCD/UPRT is performed. The recombinant protein concentration (50 nM) added with 5-FC at different concentrations. The 5-FC consumption and the generated amount of 5-FU is calculated. The measured data is taken as the x-axis by the substrate concentration [S]; the initial reaction rate V0 is the kinetic curve by making a diagramthe with y-axis (see FIG. 2A and FIG. 2B); the non-linear regression is made by the prism software according to the Michaelis-Menten equation; calculate the enzyme kinetic parameter Km and Vmax. […] It is speculated that the yCD function in each fusion protein is similar, but yUPRT may affect the effects of yCD and 5-FC.

[2] = Enzyme kinetic analysis of yCD series proteins after DTPA modification, marking and purification; format: biochemical
Description: The enzyme activity of yCD is not affected by DTPA modification.
FIGS. 24A-24B show the kinetic curve of yCD series protein modified, labeled and purified by DTPA. The enzyme activity of the two proteins is not affected by the labeling conditions. After adding EDTA with a 10-fold molar excess of protein, and it is competitively purified, In-DTPA-yCD compared with the original enzyme activity.
The curve and enzyme kinetic parameters (see FIG. 18 and Table 13) are fitted by the […] protein enzyme kinetics through the Michaelis-Menten formula in the Graph prism program.
Before the protein is labeled by radioisotope, its enzyme function must be determined, and based on the original enzyme function, it should be examined whether it will be affected during the radioactive marking process. The curve and enzyme kinetic parameters of protein are fitted by the Michaelis-Menten formula in the Graph prism program. […] Whether the yCD and RGD4C-yCD protein detected by the same method will be affected under the conditions of DTPA modification, marking and purification. […] After the completion of the radioactive metal mark, it is necessary to add EDTA of 10-fold protein Moire number and react at room temperature for 1 hour to compete for the radioactive metal isotope indium which is not chelated on DTPA. The EDTA in this step also has the chance to chelate the metal zinc ion of the enzyme catalytic center, the enzyme activity is impaired, so it is necessary to analyze the enzyme activity of In-DTPA-yCD and In-RGD4C-yCD protein after competition with EDTA. After the EDTA competitive reaction is completed, the enzyme kinetics analysis can be carried out by reducing the EDTA molecule weight through membrane centrifugation method and by replacing the solution with pH 7.0. […] The curve and receptor binding ability parameters of the protein and integrin αvβ3 are fitted under the conditions of DTPA modification, marking and purification by the One site-Specific binding formula in the Graph prism program (see FIG. 25 and Table 18). […] Although the two proteins after marking are greatly affected by the enzyme activity, they still have good binding ability to the integrin αvβ3 receptor. In consideration of the indispensability of EDTA for radiochemical purity, it retains a considerable amount of enzyme activity. In addition, the effect of integrin αvβ3 receptor binding ability is minimal, in combination of cell uptake, biodistribution and angiography experiment, focusing on the evaluation of target results, and the subsequent biological experiment is still carried out by the marking and purification conditions.

[3] = test system: HUVEC, U87MG and MCF-7 cells; test: Specific binding assay of yCD series recombinant protein and cell, statement for the three cells; format: cell-based, human
Experimental: as §1, §2

Sequence of integrin αvβ3 receptor (P06756 31-889 limits assumed): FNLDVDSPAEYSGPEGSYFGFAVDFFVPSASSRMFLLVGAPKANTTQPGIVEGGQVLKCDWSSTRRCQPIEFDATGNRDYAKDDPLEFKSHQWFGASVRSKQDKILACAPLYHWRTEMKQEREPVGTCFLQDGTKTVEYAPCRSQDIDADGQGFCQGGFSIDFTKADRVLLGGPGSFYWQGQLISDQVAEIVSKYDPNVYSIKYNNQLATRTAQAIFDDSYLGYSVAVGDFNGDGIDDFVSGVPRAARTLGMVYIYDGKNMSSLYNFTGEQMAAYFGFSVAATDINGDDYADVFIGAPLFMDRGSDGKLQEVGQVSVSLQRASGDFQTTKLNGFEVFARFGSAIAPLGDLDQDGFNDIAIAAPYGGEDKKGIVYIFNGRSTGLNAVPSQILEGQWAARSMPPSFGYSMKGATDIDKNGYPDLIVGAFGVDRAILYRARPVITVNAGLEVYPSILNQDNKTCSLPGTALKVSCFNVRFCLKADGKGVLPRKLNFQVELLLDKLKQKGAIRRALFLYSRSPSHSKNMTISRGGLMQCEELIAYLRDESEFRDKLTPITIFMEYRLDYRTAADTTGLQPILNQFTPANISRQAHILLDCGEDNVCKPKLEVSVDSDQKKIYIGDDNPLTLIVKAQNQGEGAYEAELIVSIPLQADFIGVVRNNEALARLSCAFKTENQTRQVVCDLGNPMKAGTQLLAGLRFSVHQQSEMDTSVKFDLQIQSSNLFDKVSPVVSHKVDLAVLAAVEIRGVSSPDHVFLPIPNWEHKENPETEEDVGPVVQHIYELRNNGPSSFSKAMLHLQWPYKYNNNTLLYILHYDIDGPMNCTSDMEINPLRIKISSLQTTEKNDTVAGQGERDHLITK
Sequence of integrin αvβ3 receptor (P06756 891-1048 partner limits assumed): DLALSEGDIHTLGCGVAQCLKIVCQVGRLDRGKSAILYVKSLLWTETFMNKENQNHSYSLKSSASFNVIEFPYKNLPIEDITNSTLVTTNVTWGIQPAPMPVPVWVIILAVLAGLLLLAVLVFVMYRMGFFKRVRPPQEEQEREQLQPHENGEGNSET
Sequence of integrin αvβ3 receptor (P05106 27-788): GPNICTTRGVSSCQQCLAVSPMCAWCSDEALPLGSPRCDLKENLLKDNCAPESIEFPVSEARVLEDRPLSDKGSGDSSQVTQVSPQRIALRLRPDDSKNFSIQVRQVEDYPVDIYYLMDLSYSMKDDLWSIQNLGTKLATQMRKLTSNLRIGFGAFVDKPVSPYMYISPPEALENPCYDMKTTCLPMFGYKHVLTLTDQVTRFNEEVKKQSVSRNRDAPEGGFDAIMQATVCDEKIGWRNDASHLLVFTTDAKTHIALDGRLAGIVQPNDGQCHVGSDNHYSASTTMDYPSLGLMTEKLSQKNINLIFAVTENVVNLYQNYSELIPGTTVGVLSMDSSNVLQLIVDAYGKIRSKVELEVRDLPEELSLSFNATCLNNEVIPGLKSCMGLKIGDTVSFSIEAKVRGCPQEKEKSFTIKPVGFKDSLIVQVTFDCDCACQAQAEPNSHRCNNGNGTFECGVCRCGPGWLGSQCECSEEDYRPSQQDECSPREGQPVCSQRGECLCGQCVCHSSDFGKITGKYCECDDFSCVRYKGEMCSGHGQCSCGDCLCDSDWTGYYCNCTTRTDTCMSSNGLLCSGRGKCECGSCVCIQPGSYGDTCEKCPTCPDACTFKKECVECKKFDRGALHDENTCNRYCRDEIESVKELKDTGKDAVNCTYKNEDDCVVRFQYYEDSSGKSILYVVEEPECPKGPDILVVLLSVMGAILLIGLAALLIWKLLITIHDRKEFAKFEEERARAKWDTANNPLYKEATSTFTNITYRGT

Row | decrease of binding to integrin αvβ3 by RGDfv peptide (integrin αvβ3 receptor) [%] | binding to integrin αvβ3 (integrin αvβ3 receptor; ELISA) | Molecule | binding and distribution in cells (HUVEC and U87MG cells; 4° C.) | binding and distribution in cells (HUVEC and U87MG cells; 37° C.) | cell binding ability higher than MCF-7 (HUVEC cells) | Km ([1]; calculated by 5-FC consumption) [µM] | Vmax ([1]; calculated by 5-FC consumption) [µM/min] | Km ([1]; calculated by 5-FU formation) [µM] | Vmax ([1]; calculated by 5-FU formation) [µM/min] | Km [2] [µM] | Vmax [2] [µM/min] | binding to the three cells [3]
1 | 50 | – | B1 | only bound to HUVEC and U87MG cell surface | enter the inside of HUVEC and U87MG cells through endocytosis | about 6.9 folds | 1200 ± 200 | 147.0 ± 5.9 | 1200 ± 200 | 109.2 ± 10.1 | – | – | –
2 | 50 | – | B2 | only bound to HUVEC and U87MG cell surface | enter the inside of HUVEC and U87MG cells through endocytosis | about 7.7 folds | 600 ± 100 | 179.5 ± 4.7 | 900 ± 100 | 167.7 ± 4.6 | 1000 ± 73.2 | 288.7 ± 8.883 | –
3 | – | cannot be bound | B3 | can not be effectively bound | – | – | 1200 ± 100 | 137.2 ± 3.6 | 1200 ± 100 | 112.7 ± 8.1 | – | – | weak binding
